According to publication PMC314469, “Protein Interaction Networks by Proteome Peptide Scanning” (PLoS Biology, 2004):

T1: amphyphisin SH3 (AMPH_HUMAN), P49418
T1 chain: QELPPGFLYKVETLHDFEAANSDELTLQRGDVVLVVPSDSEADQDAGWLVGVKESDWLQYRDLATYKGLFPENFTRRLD

B1: Q02246 907-921 (peptide)
chain: MKPPPRRPPGNISW
B2: Q96GZ7 12-25 (peptide)
chain: ARAALRRPLSGQAL
B3: P25705 324-337 (peptide)
chain: MSLLLRRPPGREAY
B4: O15399 995-1009 (peptide)
chain: AAQPPQKPPASYFA
B5: Q9BRN8 20-34 (peptide)
chain: MVPGPARPPGSSWD
B6: Q15428 237-251 (peptide)
chain: MNGLPPRPPLPESL
B7: O94947 263-276 (peptide)
chain: MLLSPRRPTVEKRA
B8: O00445 360-373 (peptide)
chain: MLANPRRPIAQWHS
B9: Q9P2M8 940-953 (peptide)
chain: MSTPLRRPSASETV
B10: P10747 192-205 (peptide)
chain: MNMTPRRPGPTRKH
B11: Q13423 581-594 (peptide)
chain: MLDMFKRPTDPPEY
B12: Q9GZZ2 864-877 (peptide)
chain: MKVHIKRPEMTSSS
B13: Q96DH7 35-48 (peptide)
chain: MQFSIRRPKLPSSE
B14: Q96IB4 40-53 (peptide)
chain: MTVAIRRPGVPGAP
B15: Q99654 1-14 (peptide)
chain: MSSAPRRPAKGADS
B16: P27708 1830-1843 (peptide)
chain: MTTTPERPRRGIPG
B17: O75833 1-14 (peptide)
chain: MLLRPRRPPPLAPP
B18: Q96HR8 430-444 (peptide)
chain: MHNFPLRPPPPPPP
B19: Q9Y6E0 364-377 (peptide)
chain: MKDIPKRPFSQSLS
B20: Q9Y2K2 611-624 (peptide)
chain: AQQLLKRPRGPSPL
B21: Q9UPS6 353-366 (peptide)
chain: MKRKPGRPRRSPPS
B22: P18146 321-334 (peptide)
chain: MRKYPNRPSKTPPH
B23: O94901 782-795 (peptide)
chain: MFQALKRPDDTAFQ
B24: Q13873 1-14 (peptide)
chain: MTSSLQRPWRVPWL
B25: Q92876 108-121 (peptide)
chain: MLLRLARPAKLSEL
B26: P21579 394-407 (peptide)
chain: MLANPRRPIAQWHT
B27: Q13808 54-67 (peptide)
chain: MLAMPRRPDPVFLN
B28: O95600 103-116 (peptide)
chain: MLQAPIRPPKPQSS
B29: Q9NPP7 87-101 (peptide)
chain: MLLLPPRPPHPRSS
B30: Q9Y4E6 583-597 (peptide)
chain: MKKGPTRPPRPSTP
B31: Q08050 1-14 (peptide)
chain: MKTSPRRPLILKRR

Legend:
[1] = biological target: T1, amphyphisin SH3 (AMPH_HUMAN), P49418; assay: SPOT array
[2] = biological target: endophilin SH3 (SH3G2_HUMAN), Q99962; assay: SPOT array

Row | Binder | normalised SPOT signal, Boehringer light units (BLU); mean over the file's lines of this peptide [1] | normalised SPOT signal, Boehringer light units (BLU); mean over the file's lines of this peptide [2]
1 | B1 | 1010 | 1910
2 | B2 | 87.1 | 85.3
3 | B3 | 15.9 | 63.4
4 | B4 | 45.4 | 125
5 | B5 | 45.4 | 33.6
6 | B6 | 58.1 | 9000
7 | B7 | 344 | 8300
8 | B8 | 33.7 | 551
9 | B9 | 18.3 | 228
10 | B10 | 76.1 | 2530
11 | B11 | 34.5 | 56.5
12 | B12 | 27.3 | 163
13 | B13 | 118 | 532
14 | B14 | 55.2 | 80.3
15 | B15 | 178 | 222
16 | B16 | 9560 | 2030

Row | Binder | normalised SPOT signal, Boehringer light units (BLU); mean over the file's lines of this peptide [1] | normalised SPOT signal, Boehringer light units (BLU); mean over the file's lines of this peptide [2]
17 | B17 | 2650 | 5190
18 | B18 | 68.7 | 213
19 | B19 | 99.5 | 2820
20 | B20 | 55.3 | 75.7
21 | B21 | 138 | 989
22 | B22 | 222 | 1570
23 | B23 | 38.2 | 54.5
24 | B24 | 506 | 227
25 | B25 | 346 | 342
26 | B26 | 108 | 122
27 | B27 | 57.7 | 214
28 | B28 | 1050 | 2740
29 | B29 | 3000 | 11500
30 | B30 | 10700 | 17300
31 | B31 | 150 | 2850
